Patent publication US20210246218A1

Molecular target: human FcγRIIB-Ile232 on CHO-K1 cells (human) (UniProt P31994)
Assay: flow cytometry on CHO-huFcγRIIB cells, anti-human Fc F(ab')2

Chain of human FcγRIIB-Ile232 on CHO-K1 cells (human) (P31994 43-310): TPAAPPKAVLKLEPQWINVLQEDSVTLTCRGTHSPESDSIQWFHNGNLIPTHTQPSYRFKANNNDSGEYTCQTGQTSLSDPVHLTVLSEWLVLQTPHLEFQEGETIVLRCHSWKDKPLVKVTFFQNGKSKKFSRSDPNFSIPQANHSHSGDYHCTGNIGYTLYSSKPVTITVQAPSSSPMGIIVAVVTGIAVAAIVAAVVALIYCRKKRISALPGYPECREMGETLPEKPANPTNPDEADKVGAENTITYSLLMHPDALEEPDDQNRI

EC50 (read off the curve): 5 mg/L
Substance: Avastin (antibody)
